Measured values published in patent US9783610B2.
Where “and” joins values, the source holds several entries; their conditions need not be identical. Equal values may be shown once. Read-outs that look alike come from different tables or passages of the source. One block for each molecule: values may come before it.

Assays:
[1] = target: human TEM1 (endosialin, CD248) on cells (human) (UniProt Q9HCU0); assay: live cell-based ELISA, binding to MS1-TEM1 minus binding to MS1 cells; positive control
[2] = target: human TEM1 (endosialin, CD248) on cells (human) (UniProt Q9HCU0); assay: live cell-based ELISA on MS1-TEM1 cells; reference scFv78
[3] = target: human TEM1 (endosialin, CD248) on cells (human) (UniProt Q9HCU0); assay: live cell-based ELISA, binding to MS1-TEM1 minus binding to MS1 cells, HA-HRP detection
[4] = target: T1, human TEM1 recombinant protein fused to GST (rhTEM1-GST) (human) (UniProt Q9HCU0); assay: ELISA on plate-coated rhTEM1-GST, KD=2[Ab']t-[Ab]t
T1 sequence: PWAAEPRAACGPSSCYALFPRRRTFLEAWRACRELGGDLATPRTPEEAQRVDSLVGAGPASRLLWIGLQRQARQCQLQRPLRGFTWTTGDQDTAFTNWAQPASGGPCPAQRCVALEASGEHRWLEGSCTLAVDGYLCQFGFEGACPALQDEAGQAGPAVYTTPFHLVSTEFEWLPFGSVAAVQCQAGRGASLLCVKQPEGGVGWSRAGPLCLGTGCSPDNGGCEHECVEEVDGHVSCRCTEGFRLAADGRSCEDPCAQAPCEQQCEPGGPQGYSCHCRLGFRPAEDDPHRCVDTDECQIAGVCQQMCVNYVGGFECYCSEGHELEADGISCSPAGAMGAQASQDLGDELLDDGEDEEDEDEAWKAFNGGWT

[5] = target: T1, human TEM1 recombinant protein fused to GST (rhTEM1-GST) (human); assay: ELISA on plate-coated rhTEM1-GST, KD=2[Ab']t-[Ab]t; remark: listed apart in the source

Molecule: MORAB004 antibody (Morphotek, Inc)
Kd [1]: 0.27 nM

B1: Anti-TEM1 scFv78-CH3 (protein)
chain: VQPVLTQPPSLSASPGASASLTCTLRSDINVGSYRISWYQQKPGSPPQYLLSYISDSDKQKGSGVPSRFSGSKDASANAGILLISGLQSEDEADYYCMIWHNSAGVFGGGTKLTVLGGGSSRSSSSGGGGSGGGGQVQLQESGGTLVQPGGSLRLSCEASGFTFSNYAMGWVRQTPGKGLEWLSAIRKSGTTTYYADSVKGRFIISRDNSKNTLYLQMNRLRVGDTATYYCATHPIAGYWGQGTLVTVSSASTKGPSVGGGSLIKDKTHTCPPCPSKAKGQPREPQVYTLPPSREEMTKNQVSLTCLVKGFYPSDIAVEWESNGQPENNYKTTPPVLDSDGSFFLYSKLTVDKSRWQQGNVFSCSVMHEALHNHYTQKSLSLSPGK
fold lower KD than scFv78 [2]: 5 fold
Kd [3]: 0.34 nM

B4: Anti-TEM1 scFv78-minibody (scFv)
chain: VQPVLTQPPSLSASPGASASLTCTLRSDINVGSYRISWYQQKPGSPPQYLLSYISDSDKQKGSGVPSRFSGSKDASANAGILLISGLQSEDEADYYCMIWHNSAGVFGGGTKLTVLGGGSSRSSSSGGGGSGGGGQVQLQESGGTLVQPGGSLRLSCEASGFTFSNYAMGWVRQTPGKGLEWLSAIRKSGTTTYYADSVKGRFIISRDNSKNTLYLQMNRLRVGDTATYYCATHPIAGYWGQGTLVTVSSASTKGPSVGGGSLIKDKTHTCPPCPAPEL
fold lower KD than scFv78 [2]: 5 fold
Kd [3]: 0.45 nM

Now from value to molecule:

Kd [4]: 5.8 nM and 4.5 nM and 2.8 nM
Kd [5]: 4.3 nM
B2: scFv-78 (scFv)
scFv: VQPVLTQPPSLSASPGASASLTCTLRSDINVGSYRISWYQQKPGSPPQYLLSYISDSDKQKGSGVPSRFSGSKDASANAGILLISGLQSEDEADYYCMIWHNSAGVFGGGTKLTVLGGGSSRSSSSGGGGSGGGGQVQLQESGGTLVQPGGSLRLSCEASGFTFSNYAMGWVRQTPGKGLEWLSAIRKSGTTTYYADSVKGRFIISRDNSKNTLYLQMNRLRVGDTATYYCATHPIAGYWGQGTLVTVSSASTKGPS

Kd [3]: 2.08 nM
B3: scFv78 (expressed in 293F cells, purified on anti-HA beads) (scFv)
scFv: B2 scFv
